Data as given in paper PMC6544594, “Accelerated directed evolution of dye-decolorizing peroxidase using a bacterial extracellular protein secretion system (BENNY)” (Bioresources and Bioprocessing, 2019).
Numbering of substitutions follows the chain as printed. Names and notes keep the numbering of the source.

Substrate: CCn1c(=NN=c2sc3cc(S(=O)(=O)O)ccc3n2CC)sc2cc(S(=O)(=O)O)ccc21
Experiment: purified protein
Format: biochemical, Pleurotus ostreatus
Conditions: 50 μL of 1 mM H2O2 in 200 μL (0.25 mM), 0.1 M citric acid–0.2 M Na2HPO4 pH 3.4, ambient temperature

B1: DyP4 (dye-decolorizing peroxidase 4) (Pleurotus ostreatus PC15) (protein)
chain: MTTPAPPLDLNNIQGDILGGLPKRTETYFFFDVTNVDQFKANMAHFIPHIKTSAGIIKDREAIKEHKRQKKPGLVPMAAVNVSFSHLGLQKLGITDDLSDNAFTTGQRKDAEILGDPGSKNGDAFTPAWEAPFLKDIHGVIFVAGDCHGSVNKKLDEIKHIFGVGTSHASISEVTHVRGDVRPGDVHAHEHFGFLDGISNPAVEQFDQNPLPGQDPIRPGFILAKENGDSRAAARPDWAKDGSFLTFRYLFQMVPEFDDFLESNPIVLPGLSRKEGSELLGARIVGRWKSGAPIEITPLKDDPKLAADAQRNNKFDFGDSLVRGDQTKCPFAAHIRKTYPRNDLEGPPLKADIDNRRIIRRGIQFGPEVTSQEHHDKKTHHGRGLLFVCYSSSIDDGFHFIQESWANAPNFPVNAVTSAGPIPPLDGVVPGFDAIIGQKVGGGIRQISGTNPNDPTTNITLPDQDFVVPRGGEYFFSPSITALKTKFAIGVASPAPHSQAPISA
notes: DyP4 without OsmY fusion, pET-24a(+)-DyP4 (NdeI/EcoRI), codon-optimized, untagged, E. coli BL21 (DE3), ion-exchange and SEC purified; forward primer encodes MTTPAPPL
Question: For B1, which Km is on record?
Answer: 895 ± 65 µM

Question: And the kcat?
Answer: 3.86 ± 0.08 s⁻¹

Question: And the kcat/Km?
Answer: 4310 ± 410 M⁻¹ s⁻¹

B2: DyP4 (dye-decolorizing peroxidase 4) (Pleurotus ostreatus PC15; I56V/K109R/N312S) (protein)
chain: B1 chain with I56V, K109R, N312S
notes: as for B1
Question: Which Km (variant 3F6) does the source give for B2 here?
Answer: 427 ± 55 µM

Question: And the kcat (variant 3F6)?
Answer: 5.02 ± 0.15 s⁻¹

Question: And the kcat/Km (variant 3F6)?
Answer: 11800 ± 1860 M⁻¹ s⁻¹

B3: DyP4 (dye-decolorizing peroxidase 4) (Pleurotus ostreatus PC15; I56V/K109R/N227S/N312S) (protein)
chain: B1 chain with I56V, K109R, N227S, N312S
notes: as for B1
Question: Which Km (variant 4D4) does the source give for B3 here?
Answer: 390 ± 59 µM

Question: And the kcat (variant 4D4)?
Answer: 4.52 ± 0.15 s⁻¹

Question: What about the kcat/Km (variant 4D4) of the same protein?
Answer: 11600 ± 2140 M⁻¹ s⁻¹
